In the experiment the target is T1, Clostridium difficile toxin A (TcdA) (Clostridium difficile, UniProt P16154 1-2710).
T1 construct: also called TxA; rTcdA
Description: binding kinetics, method not stated.

T1 sequence (P16154 whole entry): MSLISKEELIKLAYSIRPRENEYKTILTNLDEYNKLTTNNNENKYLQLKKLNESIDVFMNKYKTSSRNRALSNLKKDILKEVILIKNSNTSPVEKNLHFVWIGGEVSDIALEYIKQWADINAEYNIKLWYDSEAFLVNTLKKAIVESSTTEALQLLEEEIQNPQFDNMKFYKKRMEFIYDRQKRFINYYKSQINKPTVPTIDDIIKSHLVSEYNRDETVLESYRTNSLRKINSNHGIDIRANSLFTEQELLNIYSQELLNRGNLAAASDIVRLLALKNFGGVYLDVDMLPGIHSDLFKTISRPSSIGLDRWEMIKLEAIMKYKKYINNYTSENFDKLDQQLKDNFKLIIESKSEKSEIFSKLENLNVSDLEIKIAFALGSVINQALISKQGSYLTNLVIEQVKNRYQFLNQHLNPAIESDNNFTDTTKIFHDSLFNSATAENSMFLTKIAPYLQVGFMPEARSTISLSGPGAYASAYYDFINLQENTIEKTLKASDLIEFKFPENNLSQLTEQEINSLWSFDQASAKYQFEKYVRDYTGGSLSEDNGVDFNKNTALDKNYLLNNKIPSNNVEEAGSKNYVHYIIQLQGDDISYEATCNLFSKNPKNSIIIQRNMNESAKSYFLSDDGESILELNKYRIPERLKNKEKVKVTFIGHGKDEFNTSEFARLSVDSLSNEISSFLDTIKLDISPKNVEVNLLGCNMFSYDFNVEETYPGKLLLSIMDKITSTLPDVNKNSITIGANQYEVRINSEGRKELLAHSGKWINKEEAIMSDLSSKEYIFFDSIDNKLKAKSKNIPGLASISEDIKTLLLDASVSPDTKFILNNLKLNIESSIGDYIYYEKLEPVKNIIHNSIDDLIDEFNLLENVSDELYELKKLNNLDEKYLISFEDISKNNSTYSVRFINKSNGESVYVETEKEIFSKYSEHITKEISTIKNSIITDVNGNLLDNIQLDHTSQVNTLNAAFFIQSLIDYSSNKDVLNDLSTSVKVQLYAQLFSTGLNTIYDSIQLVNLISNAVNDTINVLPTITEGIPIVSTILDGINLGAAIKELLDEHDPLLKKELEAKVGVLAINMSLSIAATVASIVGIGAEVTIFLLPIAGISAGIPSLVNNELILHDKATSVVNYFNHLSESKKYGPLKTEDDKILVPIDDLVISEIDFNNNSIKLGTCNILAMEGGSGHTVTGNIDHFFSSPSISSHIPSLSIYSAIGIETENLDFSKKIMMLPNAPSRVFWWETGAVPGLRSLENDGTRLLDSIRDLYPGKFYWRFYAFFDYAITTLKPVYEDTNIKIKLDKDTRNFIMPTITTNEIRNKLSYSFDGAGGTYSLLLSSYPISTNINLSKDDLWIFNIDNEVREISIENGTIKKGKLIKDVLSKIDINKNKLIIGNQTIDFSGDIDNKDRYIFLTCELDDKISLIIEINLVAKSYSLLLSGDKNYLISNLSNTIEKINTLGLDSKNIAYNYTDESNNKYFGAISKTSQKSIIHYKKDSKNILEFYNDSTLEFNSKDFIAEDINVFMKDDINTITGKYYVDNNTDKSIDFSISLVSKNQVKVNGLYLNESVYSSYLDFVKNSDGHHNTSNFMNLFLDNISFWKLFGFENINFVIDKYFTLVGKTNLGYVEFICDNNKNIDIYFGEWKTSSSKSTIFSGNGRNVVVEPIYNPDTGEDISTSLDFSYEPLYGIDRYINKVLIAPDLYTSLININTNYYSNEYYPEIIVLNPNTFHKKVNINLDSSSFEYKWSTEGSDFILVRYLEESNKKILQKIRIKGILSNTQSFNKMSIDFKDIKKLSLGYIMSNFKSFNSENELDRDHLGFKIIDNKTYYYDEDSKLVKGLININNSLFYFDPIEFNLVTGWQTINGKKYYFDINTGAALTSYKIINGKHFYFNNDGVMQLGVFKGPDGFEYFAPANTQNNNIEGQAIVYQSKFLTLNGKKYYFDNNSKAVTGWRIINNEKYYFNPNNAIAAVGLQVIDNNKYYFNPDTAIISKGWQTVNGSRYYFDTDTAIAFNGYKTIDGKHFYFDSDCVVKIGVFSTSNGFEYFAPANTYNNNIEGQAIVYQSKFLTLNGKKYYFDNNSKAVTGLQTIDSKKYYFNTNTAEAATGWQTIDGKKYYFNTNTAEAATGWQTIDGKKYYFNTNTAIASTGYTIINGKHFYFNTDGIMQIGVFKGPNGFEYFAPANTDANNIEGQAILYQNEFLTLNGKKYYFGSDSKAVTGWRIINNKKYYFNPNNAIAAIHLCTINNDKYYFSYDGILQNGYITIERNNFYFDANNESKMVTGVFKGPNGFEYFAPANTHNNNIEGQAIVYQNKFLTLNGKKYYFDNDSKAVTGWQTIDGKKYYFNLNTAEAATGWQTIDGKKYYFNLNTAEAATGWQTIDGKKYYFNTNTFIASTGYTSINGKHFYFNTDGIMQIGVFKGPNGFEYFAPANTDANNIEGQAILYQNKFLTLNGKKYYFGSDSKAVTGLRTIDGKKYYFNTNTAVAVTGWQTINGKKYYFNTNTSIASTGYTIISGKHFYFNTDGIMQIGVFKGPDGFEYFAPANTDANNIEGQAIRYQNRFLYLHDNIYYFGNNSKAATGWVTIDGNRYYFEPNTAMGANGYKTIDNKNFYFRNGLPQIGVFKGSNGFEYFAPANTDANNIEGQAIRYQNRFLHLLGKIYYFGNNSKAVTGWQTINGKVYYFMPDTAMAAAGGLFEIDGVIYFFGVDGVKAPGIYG

B1: AA6 VHH peptide monomer (VHH)
VHH: QLQLVETGGGLVQPGGSLRLSCAASGFTFSDYVMTWVRQAPGKGPEWIATINTDGSTMRDDSTKGRFTISRDNAKNTLYLQMTSLKPEDTALYYCARGRVISASAIRGAVRGPGTQVTVSS
With B1, binding was characterised by a dissociation constant (Kd) of 19.7 nM; the koff (as a rule, the first-order rate constant of dissociation) was 0.000692 s⁻¹; the on-rate constant (kon) (usually the second-order rate constant of association) stood at 35200 M⁻¹ s⁻¹.

B2: ABAB binding agent (AH3/5D/AA6/E3), tetra-specific, tetrameric VHH binding agent (designed binder)
chain: QVQLVETGGGLVQPGGSLRLSCAASGFTLDYSSIGWFRQAPGKEREGVSCISSSGDSTKYADSVKGRFTTSRDNAKNTVYLQMNSLKPDDTAVYYCAAFRATMCGVFPLSPYGKDDWGKGTLVTVSSGGGGSGGGGSGGGGSQVQLVESGGGLVQPGGSLRLSCEASGFTLDYYGIGWFRQPPGKEREAVSYISASARTILYADSVKGRFTISRDNAKNAVYLQMNSLKREDTAVYYCARRRFSASSVNRWLADDYDVWGRGTQVAVSSGGGSGGGSGGGSGGGSQLQLVETGGGLVQPGGSLRLSCAASGFTFSDYVMTWVRQAPGKGPEWIATINTDGSTMRDDSTKGRFTISRDNAKNTLYLQMTSLKPEDTALYYCARGRVISASAIRGAVRGPGTQVTVSSGGGGSGGGGSGGGGSQVQLVESGGGLVQTGGSLRLSCASSGSIAGFETVTWSRQAPGKSLQWVASMTKTNNEIYSDSVKGRFIISRDNAKNTVYLQMNSLKPEDTGVYFCKGPELRGQGIQVTVSS
notes: also called r-ABAB; recombinant ABAB
With B2, the affinity, expressed as Kd, was 0.002 nM; the dissociation rate constant (koff) is 1.21e-06 s⁻¹; the association rate constant (kon) worked out at 696000 M⁻¹ s⁻¹.
